Reference: the supplement of paper PMC11246515
± gives the standard deviation of the averaged measurements.

Assay: total protein half-life in vivo (active degradation + dilution); higher = more stable protein
[1] = E. coli NCM3722 delta-clpP delta-lon delta-hslV, growth: N-lim chemostat, doubling time 6 h
[2] = E. coli NCM3722 delta-clpP, growth: N-lim chemostat, doubling time 6 h
[3] = E. coli NCM3722 delta-hslV, growth: N-lim chemostat, doubling time 6 h
[4] = E. coli NCM3722 delta-lon, growth: N-lim chemostat, doubling time 6 h
[5] = E. coli NCM3722 delta-smpB, growth: N-lim chemostat, doubling time 6 h
[6] = wild type E. coli NCM3722, growth: C-lim chemostat, doubling time 3 h
[7] = wild type E. coli NCM3722, growth: C-lim chemostat, doubling time 6 h
[8] = wild type E. coli NCM3722, growth: C-lim chemostat, doubling time 12 h
[9] = wild type E. coli NCM3722, growth: N-lim chemostat, doubling time 6 h
[10] = wild type E. coli NCM3722, growth: N-lim chemostat, doubling time 12 h
[11] = wild type E. coli NCM3722, growth: P-lim chemostat, doubling time 6 h
[12] = wild type E. coli NCM3722, growth: P-lim chemostat, doubling time 12 h

Row | Sequence | total protein half-life in vivo [1] [h] | total protein half-life in vivo [2] [h] | total protein half-life in vivo [3] [h] | total protein half-life in vivo [4] [h] | total protein half-life in vivo [5] [h] | total protein half-life in vivo [6] [h] | total protein half-life in vivo [7] [h] | total protein half-life in vivo [8] [h] | total protein half-life in vivo [9] [h] | total protein half-life in vivo [10] [h] | total protein half-life in vivo [11] [h] | total protein half-life in vivo [12] [h]
1 | MSQHNEKNPHQHQSPLHDSSEAKPGMDSLAPEDGSHRPAAEPTPPGAQPTAPGSLKAPDTRNEKLNSLEDVRKGSENYALTTNQGVRIADDQNSLRAGSRGPTLLEDFILREKITHFDHERIPERIVHARGSAAHGYFQPYKSLSDITKADFLSDPNKITPVFVRFSTVQGGAGSADTVRDIRGFATKFYTEEGIFDLVGNNTPIFFIQDAHKFPDFVHAVKPEPHWAIPQGQSAHDTFWDYVSLQPETLHNVMWAMSDRGIPRSYRTMEGFGIHTFRLINAEGKATFVRFHWKPLAGKASLVWDEAQKLTGRDPDFHRRELWEAIEAGDFPEYELGFQLIPEEDEFKFDFDLLDPTKLIPEELVPVQRVGKMVLNRNPDNFFAENEQAAFHPGHIVPGLDFTNDPLLQGRLFSYTDTQISRLGGPNFHEIPINRPTCPYHNFQRDGMHRMGIDTNPANYEPNSINDNWPRETPPGPKRGGFESYQERVEGNKVRERSPSFGEYYSHPRLFWLSQTPFEQRHIVDGFSFELSKVVRPYIRERVVDQLAHIDLTLAQAVAKNLGIELTDDQLNITPPPDVNGLKKDPSLSLYAIPDGDVKGRVVAILLNDEVRSADLLAILKALKAKGVHAKLLYSRMGEVTADDGTVLPIAATFAGAPSLTVDAVIVPCGNIADIADNGDANYYLMEAYKHLKPIALAGDARKFKATIKIADQGEEGIVEADSADGSFMDELLTLMAAHRVWSRIPKIDKIPA | 6.34 ± 0.49 | 6.14 ± 0.56 | 5.76 ± 0.4 | 5.78 ± 0.094 | 5.28 ± 0.077 | 2.79 ± 0.4 | 5.76 ± 0.23 | 10.8 ± 0.26 | 5.81 ± 0.24 | 12.3 ± 1.9 | 5.88 ± 0.41 | 11.9 ± 0.53
2 | MSQIFAYCRISTLDQTTENQRREIESAGFKIKPQQIIEEHISGSAATSERPGFNRLLARLKCGDQLIVTKLDRLGCNAMDIRKTVEQLTETGIRVHCLALGGIDLTSPTGKMMMQVISAVAEFERDLLLERTHSGIVRARGAGKRFGRPPVLNEEQKQAVFERIKSGVSISAIAREFKTSRQTILRAKAKLQTPDI | 5.84 ± 0.17 |  |  | 3.81 | 1.43 | 1.59 |  | 4.26 |  |  |  | 
3 | MSQIHKHTIPANIADRCLINPQQYEAMYQQSINVPDTFWGEQGKILDWIKPYQKVKNTSFAPGNVSIKWYEDGTLNLAANCLDRHLQENGDRTAIIWEGDDASQSKHISYKELHRDVCRFANTLLELGIKKGDVVAIYMPMVPEAAVAMLACARIGAVHSVIFGGFSPEAVAGRIIDSNSRLVITSDEGVRAGRSIPLKKNVDDALKNPNVTSVEHVVVLKRTGGKIDWQEGRDLWWHDLVEQASDQHQAEEMNAEDPLFILYTSGSTGKPKGVLHTTGGYLVYAALTFKYVFDYHPGDIYWCTADVGWVTGHSYLLYGPLACGATTLMFEGVPNWPTPARMAQVVDKHQVNILYTAPTAIRALMAEGDKAIEGTDRSSLRILGSVGEPINPEAWEWYWKKIGNEKCPVVDTWWQTETGGFMITPLPGATELKAGSATRPFFGVQPALVDNEGNPLEGATEGSLVITDSWPGQARTLFGDHERFEQTYFSTFKNMYFSGDGARRDEDGYYWITGRVDDVLNVSGHRLGTAEIESALVAHPKIAEAAVVGIPHNIKGQAIYAYVTLNHGEEPSPELYAEVRNWVRKEIGPLATPDVLHWTDSLPKTRSGKIMRRILRKIAAGDTSNLGDTSTLADPGVVEKLLEEKQAIAMPS | 4.67 ± 0.31 | 4.83 ± 0.67 | 3.24 ± 0.14 | 3.54 ± 0.24 | 3.221 ± 0.018 | 2.89 ± 0.091 | 4.91 ± 0.44 | 7.66 ± 0.46 | 3.88 ± 0.81 | 4.67 ± 0.55 | 4.28 ± 0.03 | 7.43 ± 0.81
4 | MSQKLKVVTIGGGSSYTPELLEGFIKRYHELPVSELWLVDVEGGKPKLDIIFDLCQRMIDNAGVPMKLYKTLDRREALKDADFVTTQLRVGQLPARELDERIPLSHGYLGQETNGAGGLFKGLRTIPVIFDIVKDVEELCPNAWVINFTNPAGMVTEAVYRHTGFKRFIGVCNIPIGMKMFIRDVLMLKDSDDLSIDLFGLNHMVFIKDVLINGKSRFAELLDGVASGQLKASSVKNIFDLPFSEGLIRSLNLLPCSYLLYYFKQKEMLAIEMGEYYKGGARAQVVQKVEKQLFELYKNPELKVKPKELEQRGGAYYSDAACEVINAIYNDKQAEHYVNIPHHGQIDNIPADWAVEMTCKLGRDGATPHPRITHFDDKVMGLIHTIKGFEIAASNAALSGEFNDVLLALNLSPLVHSDRDAELLAREMILAHEKWLPNFADCIAELKKAH | 6.05 ± 1.9 | 7.38 | > 8 |  | 3.97 ± 0.054 | 2.84 ± 0.34 | 6.45 ± 1.8 | 9.95 ± 0.38 | 4.52 | 8.23 ± 0.59 | 6.29 ± 0.62 | 11 ± 1.1
5 | MSQLNSVWVFSDNPERYAELFGGAQQWGQQVYAIVQNTDQAQAVMPYGPKCLYVLAQNDALQRTENYAESIAALLKDKHPAMLLLAATKRGKALAARLSVQLNAALVNDATAVDIVDGHICAEHRMYGGLAFAQEKINSPLAIITLAPGVQEPCTSDTSHQCPTETVPYVAPRHEILCRERRAKAASSVDLSKAKRVVGVGRGLAAQDDLKMVHELAAVLNAEVGCSRPIAEGENWMERERYIGVSGVLLKSDLYLTLGISGQIQHMVGGNGAKVIVAINKDKNAPIFNYADYGLVGDIYKVVPALISQLSR | 5.37 ± 0.057 |  | 4.24 |  |  |  |  |  |  | 6.04 |  | 
6 | MSQLTHINAAGEAHMVDVSAKAETVREARAEAFVTMRSETLAMIIDGRHHKGDVFATARIAGIQAAKRTWDLIPLCHPLMLSKVEVNLQAEPEHNRVRIETLCRLTGKTGVEMEALTAASVAALTIYDMCKAVQKDMVIGPVRLLAKSGGKSGDFKVEADD [P0A738] | 5.289 ± 0.028 | 5.03 ± 0.15 | 4.56 ± 0.47 | 4.41 ± 0.087 | 3.95 ± 0.17 | 2.9 ± 0.24 | 4.96 ± 0.099 | 8.28 ± 0.49 | 4.1 ± 0.28 | 5.91 ± 0.19 | 4.92 ± 0.059 | 9.42 ± 0.47
7 | MSQNLDATAINQIHALISAQGVNEIISKIGADAVALPENFRIHDLEKFNLNRFRFRGALSTASIDDFTRYSKDLADEGTRCFIDADNMRAVSVLNLGTIDEPGHADNTATLKLKKTAPFSALLSVNGERNSQKSLAEWIEDWADYLVGFDANGDAIQATKAAAAIRKITIEANQTADFEDNDFSGKRSLMESVEAKTKDIMPVAFEFKCVPFEGLKERPFKLRLSIITGDRPVLVLRIIQLEAVQEDMANEFRDLLVEKFKDSKVETFIGTFTA | 3.03 ± 0.25 | 3.16 |  |  |  | 2.69 | 5.13 ± 0.22 | 9.79 ± 0.92 |  | 5.29 | 5.71 ± 0.56 | 15.2 ± 0.98
